B1: SI-20C14 (antibody, human IgG1, kappa, V domains shown)
VH: EVQLVESGGGLVQPGGSLRLSCAASGFSFSGTQYVCWVRQAPGKGLEWIGCIYVDVANTYYATSVKGRFTISRDNSKNTLYLQMNSLRAEDTAVYYCASHDTVCAGCGLDLWGQGTLVTVSS
VL: DIQMTQSPSTLSASVGDRVTITCQASENIYSNLAWYQQKPGKAPKLLIYDASTLASGVPSRFSGSGSGTEFTLTISSLQPDDFATYYCQSTYYNNIIYGAAFGGGTKVEIKR
notes: monoclonal antibody control for the αCEA domain; also called αCEA mAb 656E11; SI-20C14 (anti-CEA 656E11)
B2: SI-49R27 (bispecific antibody, human IgG1, kappa, L234A L235A, N297A)
chain 1: EIVMTQSPSTLSASVGDRVIITCQASESISSWLAWYQQKPGKAPKLLIYEASKLASGVPSRFSGSGSGAEFTLTISSLQPDDFATYYCQGYFYFISRTYVNSFGCGTKLTVLGSTGSGSKPGSGEGSTKGEVQLVESGGGLVQPGGSLRLSCTASGFTISTNAMSWVRQAPGKCLEWVGVITGRDITYYASWAKGRFTISRDTSKNTVYLQMNSLRAEDTAVYYCARDGGSSAITSNNIWGQGTLVTVSTGGGGSGGGGSFLNSLFNQEVQIPLTESYCGPCPKNWICYKNNCYQFFDESKNWYESQASCMSQNASLLKVYSKEDQDLLKLVKSYHWMGLVHIPTNGSWQWEDGSILSPNLLTIIEMQKGDCALYASSFKGYIENCSTPNTYICMQRTVASTKGPSVFPLAPSSKSTSGGTAALGCLVKDYFPEPVTVSWNSGALTSGVHTFPAVLQSSGLYSLSSVVTVPSSSLGTQTYICNVNHKPSNTKVDKRVEPKSCDKTHTCPPCPAPEAAGGPSVFLFPPKPKDTLMISRTPEVTCVVVDVSHEDPEVKFNWYVDGVEVHNAKTKPREEQYASTYRVVSVLTVLHQDWLNGKEYKCAVSNKALPAPIEKTISKAKGQPREPQVCTLPPSRDELTKNQVSLSCAVKGFYPSDIAVEWESNGQPENNYKTTPPVLDSDGSFFLVSKLTVDKSRWQQGNVFSCSVMHEALHNHYTQKSLSLSPG
chain 2: not shown
notes: bi-miniGNC; D1 αCD3, D3 NKG2D receptor dimer
B3: SI-35FS11 (Fc fusion)
chain: EPKSSDKTHTCPPCPAPEAAGAPSVFLFPPKPKDTLMISRTPEVTCVVVDVSHEDPEVKFNWYVDGVEVHNAKTKPREEQYNSTYRVVSVLTVLHQDWLNGKEYKCAVSNKALPAPIEKTISKAKGQPREPQVYTLPPSRDELTKNQVSLTCLVKGFYPSDIAVEWESNGQPENNYKTTPPVLDSDGSFFLYSKLTVDKSRWQQGNVFSCSVMHEALHNHYTQKSLSLSPGGGGGSGGGGSRSLVESGGGLVQPGGSLRLSCTASGFTISSYHMQWVRQAPGKGLEYIGTISSGGNVYYASSARGRFTISRPSSKNTVDLQMNSLRAEDTAVYYCARDSGYSDPMWGQGTLVTVSSGGGGSGGGGSGGGGSGGGGSDVVMTQSPSSVSASVGDRVTITCQASQNIRTYLSWYQQKPGKAPKLLIYAAANLASGVPSRFSGSGSGTDFTLTISDLEPGDAATYYCQSTYLGTDYVGGAFGGGTKVEIK
notes: Fc-scFv control for the α4-1BB domain; also called SI-35SF11; α4-1BB Fc-scFv
B4: SI-3FS11 (Fc fusion)
chain: EPKSSDKTHTCPPCPAPEAAGAPSVFLFPPKPKDTLMISRTPEVTCVVVDVSHEDPEVKFNWYVDGVEVHNAKTKPREEQYNSTYRVVSVLTVLHQDWLNGKEYKCAVSNKALPAPIEKTISKAKGQPREPQVYTLPPSRDELTKNQVSLTCLVKGFYPSDIAVEWESNGQPENNYKTTPPVLDSDGSFFLYSKLTVDKSRWQQGNVFSCSVMHEALHNHYTQKSLSLSPGGGGGSGGGGSEVQLLESGGGLVQPGGSLRLSCAASGFSFSSGYDMCWVRQAPGKGLEWIACIAAGSAGITYDANWAKGRFTISRDNSKNTLYLQMNSLRAEDTAVYYCARSAFSFDYAMDLWGQGTLVTVSSGGGGSGGGGSGGGGSGGGGSDIQMTQSPSTLSASVGDRVTITCQASQSISSHLNWYQQKPGKAPKLLIYKASTLASGVPSRFSGSGSGTEFTLTISSLQPDDFATYYCQQGYSWGNVDNVFGGGTKVEIK
notes: Fc-scFv control for the αPD-L1 domain; also called SI-3SF11; αPD-L1 Fc-scFv
B5: SI-76PM1 (other)
chain 1: QIVLSQSPAILSASPGEKVTMTCRASSSVSYIHWFQQKPGSSPKPWIYATSNLASGVPVRFSGSGSGTSYSLTISRVEAEDAATYYCQQWTSNPPTFGGGTKLTVLGGGGSGGGGSGGGGSGGGGSQVQLQQPGAELVKPGASVKMSCKASGYTFTSYNMHWVKQTPGRGLEWIGAIYPGNGDTSYNQKFKGKATLTADKSSSTAYMQLSSLTSEDSAVYYCARSTYYGGDWYFNVWGAGTTVTVSSGGGGSGGGGSEVQLVESGGGLVQPGGSLRLSCAASGFTISTNAMSWVRQAPGKCLEWIGVITGRDITYYASWAKGRFTISRDNSKNTLYLQMNSLRAEDTAVYYCARDGGSSAITSNNIWGQGTLVTVSSASTKGPSVFPLAPSSKSTSGGTAALGCLVKDYFPEPVTVSWNSGALTSGVHTFPAVLQSSGLYSLSSVVTVPSSSLGTQTYICNVNHKPSNTKVDKRVEPKSCDKTHTCPPCPAPEAAGGPSVFLFPPKPKDTLMISRTPEVTCVVVDVSHEDPEVKFNWYVDGVEVHNAKTKPREEQYNSTYRVVSVLTVLHQDWLNGKEYKCAVSNKALPAPIEKTISKAKGQPREPQVYTLPPSRDELTKNQVSLSCAVKGFYPSDIAVEWESNGQPENNYKTTPPVLDSDGSFFLVSKLTVDKSRWQQGNVFSCSVMHEALHNHYTQKSLSLSPGGGGGSGGGGSDVVMTQSPSSVSASVGDRVTITCQASQNIRTYLSWYQQKPGKAPKLLIYAAANLASGVPSRFSGSGSGTDFTLTISDLEPGDAATYYCQSTYLGTDYVGGAFGGGTKLTVLGGGGSGGGGSGGGGSGGGGSEVQLVESGGGLVQPGGSLRLSCTASGFTISSYHMQWVRQAPGKGLEYIGTISSGGNVYYASSARGRFTISRPSSKNTVDLQMNSLRAEDTAVYYCARDSGYSDPMWGQGTLVTVSS
chain 2: ENVLTQSPASLSASPGERVTITCSASSSVSYMHWYQQKPGQAPKLWIYDTSKLASGVPSRFSGSGSGNDHTLTISSMEPEDFATYYCFQGSVYPFTFGQGTKVTVLGGGGSGGGGSGGGGSGGGGSQVTLKESGPGLVQPGQTLSLTCAFSGFSLSTSGMGVGWIRQPPGKGLEWLAHIWWDDDKRYNPALKSRLTISKDTSKNQVYLQMNSLDAEDTAVYYCARMELWSYYFDYWGQGTLVTVSSGGGGSGGGGSDVVMTQSPSTLSASVGDRVTINCQASESISSWLAWYQQKPGKAPKLLIYEASKLASGVPSRFSGSGSGTEFTLTISSLQPDDFATYYCQGYFYFISRTYVNSFGCGTKVEIKRTVAAPSVFIFPPSDEQLKSGTASVVCLLNNFYPREAKVQWKVDNALQSGNSQESVTEQDSKDSTYSLSSTLTLSKADYEKHKVYACEVTHQGLSSPVTKSFNRGECGGDKTHTCPPCPAPEAAGGPSVFLFPPKPKDTLMISRTPEVTCVVVDVSHEDPEVKFNWYVDGVEVHNAKTKPREEQYNSTYRVVSVLTVLHQDWLNGKEYKCAVSNKALPAPIEKTISKAKGQPREPQVYTLPPSRDELTKNQVSLWCLVKGFYPSDIAVEWESNGQPENNYKTTPPVLDSDGSFFLYSKLTVDKSRWQQGNVFSCSVMHEALHNRFTQKSLSLSPGGGGGSGGGGSDIQMTQSPSTLSASVGDRVTITCQASQSISSHLNWYQQKPGKAPKLLIYKASTLASGVPSRFSGSGSGTEFTLTISSLQPDDFATYYCQQGYSWGNVDNVFGGGTKVTVLGGGGSGGGGSGGGGSGGGGSEVQLLESGGGLVQPGGSLSLSCAASGFSFSSGYDMCWVRQAPGKGLEWIACIAAGSAGITYDANWAKGRFTISRDNSKNTLYLQMNSLRAEDTAVYYCARSAFSFDYAMDLWGQGTLVTVSS
notes: penta-miniGNC; as SI-38P11 but with an additional disulphide ('staple') in the D3 αCD3 Fab VH/VL
B6: CD19 (receptor, UniProt P15391 20-291, looked up)
chain: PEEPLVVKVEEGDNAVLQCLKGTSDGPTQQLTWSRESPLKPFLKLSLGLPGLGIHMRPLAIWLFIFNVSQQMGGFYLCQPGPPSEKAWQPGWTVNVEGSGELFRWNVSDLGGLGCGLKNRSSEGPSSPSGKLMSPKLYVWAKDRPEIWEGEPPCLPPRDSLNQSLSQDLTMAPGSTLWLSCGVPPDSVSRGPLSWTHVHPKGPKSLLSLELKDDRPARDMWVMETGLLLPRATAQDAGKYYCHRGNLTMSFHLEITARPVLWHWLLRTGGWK
B7: SI-9C21 (antibody, human IgG1, kappa, V domains shown)
VH: EVQLVESGGGLVQPGGSLRLSCTASGFTISTNAMSWVRQAPGKGLEWVGVITGRDITYYASWAKGRFTISRDTSKNTVYLQMNSLRAEDTAVYYCARDGGSSAITSNNIWGQGTLVTVSS
VL: EIVMTQSPSTLSASVGDRVIITCQASESISSWLAWYQQKPGKAPKLLIYEASKLASGVPSRFSGSGSGAEFTLTISSLQPDDFATYYCQGYFYFISRTYVNSFGQGTKLTVLR
notes: monoclonal antibody control for the αCD3 domain; also called αCD3 mAb; D3 = αCD3 control

Columns and labels:
CEA = molecular target: T1, CEA (UniProt P06731 35-685, limits assumed); assay: BLI (Octet), unstapled control mAb or Fc-scFv
T1 sequence (looked up): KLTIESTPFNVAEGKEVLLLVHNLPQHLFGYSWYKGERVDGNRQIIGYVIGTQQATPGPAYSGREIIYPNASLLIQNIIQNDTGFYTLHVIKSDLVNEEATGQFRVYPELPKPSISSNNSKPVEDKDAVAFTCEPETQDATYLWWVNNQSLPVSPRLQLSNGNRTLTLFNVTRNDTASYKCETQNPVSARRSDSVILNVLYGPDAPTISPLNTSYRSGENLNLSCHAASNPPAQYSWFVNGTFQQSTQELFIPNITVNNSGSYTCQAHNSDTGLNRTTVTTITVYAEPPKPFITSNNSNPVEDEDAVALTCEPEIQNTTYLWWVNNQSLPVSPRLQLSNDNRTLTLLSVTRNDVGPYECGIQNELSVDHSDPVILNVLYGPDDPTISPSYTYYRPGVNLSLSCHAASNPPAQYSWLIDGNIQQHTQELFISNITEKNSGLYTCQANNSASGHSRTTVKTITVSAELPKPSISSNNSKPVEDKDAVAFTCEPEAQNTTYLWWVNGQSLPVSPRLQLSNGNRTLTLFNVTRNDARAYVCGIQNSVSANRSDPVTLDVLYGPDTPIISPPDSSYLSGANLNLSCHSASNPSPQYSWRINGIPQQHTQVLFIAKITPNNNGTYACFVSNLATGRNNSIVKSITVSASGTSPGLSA

NKG2D ligand = assay: BLI (Octet); conditions and ligand not stated
human CD3 [1] = molecular target: T2, human CD3 (human, UniProt P07766 23-126; P04234 22-105); assay: BLI (Octet); conditions not stated
T2 construct: also called His-tagged human CD3; human CD3 (Acro CDD-H52W1)

human 4-1BB [2] = molecular target: T3, human 4-1BB (human, UniProt Q07011 24-186, limits assumed); assay: BLI (Octet), unstapled control mAb or Fc-scFv
T3 construct: Soluble antigen in Octet; construct not described

human PD-L1 [3] = molecular target: T4, human PD-L1 (human, UniProt Q9NZQ7 19-238); assay: BLI (Octet), unstapled control mAb or Fc-scFv
T4 construct: Soluble antigen in Octet; bought; also called human PD-L1 (Acro PD1-H5229)

CD19 = molecular target: B6; assay: antigen binding kinetics; method not given
human 4-1BB [4] = molecular target: T3, human 4-1BB; assay: antigen binding kinetics; method not given
human PD-L1 [5] = molecular target: T4, human PD-L1; assay: antigen binding kinetics; method not given
human CD3 [6] = molecular target: T2, human CD3; assay: antigen binding kinetics; method not given
SI-49P9 = molecular target: T5, SI-49P9; assay: BLI (Octet); conditions not stated
T5 construct: penta-miniGNC; D1 αCD3, D2 αCD19, D3 NKG2D receptor dimer, D4 41BBL, D5 αPD-L1

human CD3 [7] = molecular target: T2, human CD3; assay: BLI (Octet), unstapled control mAb or Fc-scFv

T5 sequence (chain, as listed by the source): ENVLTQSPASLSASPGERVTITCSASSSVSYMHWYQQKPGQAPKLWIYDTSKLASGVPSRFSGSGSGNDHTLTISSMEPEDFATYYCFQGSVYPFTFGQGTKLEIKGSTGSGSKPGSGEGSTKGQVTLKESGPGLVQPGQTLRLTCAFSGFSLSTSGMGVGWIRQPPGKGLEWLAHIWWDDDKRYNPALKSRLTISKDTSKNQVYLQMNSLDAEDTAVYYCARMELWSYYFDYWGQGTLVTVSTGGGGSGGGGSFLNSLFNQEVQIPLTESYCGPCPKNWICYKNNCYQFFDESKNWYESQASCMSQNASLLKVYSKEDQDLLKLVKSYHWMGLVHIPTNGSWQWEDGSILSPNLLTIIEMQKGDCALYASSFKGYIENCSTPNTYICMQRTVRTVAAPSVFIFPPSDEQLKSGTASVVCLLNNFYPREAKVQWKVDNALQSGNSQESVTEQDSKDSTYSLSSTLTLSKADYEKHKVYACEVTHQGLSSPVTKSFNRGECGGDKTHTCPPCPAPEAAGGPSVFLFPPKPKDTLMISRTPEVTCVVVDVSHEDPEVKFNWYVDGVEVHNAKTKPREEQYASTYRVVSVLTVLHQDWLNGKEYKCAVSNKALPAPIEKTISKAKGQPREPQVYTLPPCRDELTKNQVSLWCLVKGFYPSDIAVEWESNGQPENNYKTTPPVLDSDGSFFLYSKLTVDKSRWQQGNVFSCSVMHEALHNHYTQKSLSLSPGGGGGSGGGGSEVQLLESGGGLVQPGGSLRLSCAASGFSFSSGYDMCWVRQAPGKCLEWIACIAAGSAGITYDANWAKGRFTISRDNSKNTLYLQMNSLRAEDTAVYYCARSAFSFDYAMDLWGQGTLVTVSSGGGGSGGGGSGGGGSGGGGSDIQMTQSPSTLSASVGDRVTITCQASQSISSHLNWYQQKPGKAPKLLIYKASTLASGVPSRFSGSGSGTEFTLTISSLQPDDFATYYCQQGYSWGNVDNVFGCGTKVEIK

B1
Kd (CEA): < 0.001 nM

B2
Kd (NKG2D ligand): 16 nM
Kd (human CD3 [1]): 32.2 nM

B3
Kd (human 4-1BB [2]): 14.9 nM

B4
Kd (human PD-L1 [3]): 0.94 nM

B5
Kd (CD19): 3.3 nM
Kd (human 4-1BB [4]): 22.4 nM
Kd (human PD-L1 [5]): 1.47 nM
Kd (human CD3 [6]): 3.22 nM

B6
Kd (SI-49P9): 6.4 nM

B7
Kd (human CD3 [7]): 26.3 nM
